Measurements: publication PMC4765788, “Role of a chalcone isomerase-like protein in flavonoid biosynthesis in Arabidopsis thaliana” (Journal of Experimental Botany, 2015)

Target: the molecule itself
Assay: native gel or EMSA; purified recombinant protein run on a non-denaturing PAGE gel

B1: recombinant TT5 protein (chalcone isomerase), His-tagged (enzyme, Arabidopsis thaliana, UniProt P41088 1-246, looked up)
chain: MSSSNACASPSPFPAVTKLHVDSVTFVPSVKSPASSNPLFLGGAGVRGLDIQGKFVIFTVIGVYLEGNAVPSLSVKWKGKTTEELTESIPFFREIVTGAFEKFIKVTMKLPLTGQQYSEKVTENCVAIWKQLGLYTDCEAKAVEKFLEIFKEETFPPGSSILFALSPTGSLTVAFSKDDSIPETGIAVIENKLLAEAVLESIIGKNGVSPGTRLSVAERLSQLMMKNKDEKEVSDHSVEEKLAKEN
notes: TT5, chalcone isomerase, Arabidopsis thaliana, At3g55120; ORF cloned into pQE-30; pQE-30 usually adds an N-terminal His6 tag (surmised); also called CHI
- stoichiometry N: 4
